Test results published in patent US20260055188A1 (SHENGHE CHINA BIOPHARMACEUTICAL, published 2026).
Where two headings read alike, the source gives them in different places.

B1: anti-CD24 control antibody (variable region SEQ ID NO: 9 and SEQ ID NO: 13, constant region of human IgG1 SEQ ID NO: 85 and SEQ ID NO: 86) (antibody, V domains shown)
VH: EVQLQESGPGLVKPSQTLSLTCTVSGYSITSGYTWHWIRQFPGNKLEWIGHIQYTGNTKYNPSLESRITISRDTSKNQFSLKLSSVTAADTATYYCARGSTNSNDYWGQGTLVTVSS
VL: DIVMTQSPSSLAVSLGERATINCKSSQSLLYSNDQKNYLAWYQQKPGQSPKLLIYWASTRESGVPDRFSGSGSGTDFTLTISSLQAEDVAVYYCQQYFIYPLTFGGGTKLELKR
B2: TB-C1 (bispecific antibody, human IgG1, kappa)
light: DIVMTQSPATLSVTPGDRVSLSCRASQSISDYLHWYQQKSHESPRLLIKYASQSISGIPSRFSGSGSGSDFTLSINSVEPEDVGVYYCQNGHSFPLTFGAGTKLELKRTVAAPSVFIFPPSDEQLKSGTASVVCLLNNFYPREAKVQWKVDNALQSGNSQESVTEQDSKDSTYSLSSTLTLSKADYEKHKVYACEVTHQGLSSPVTKSFNRGEC
heavy: not shown
notes: also called antibody TB-C1
B3: Positive control 2 (variable region SEQ ID NO: 41) (VHH)
VHH: EVQLVESGGGLVQPGGSLRLSCAASGSRLDYYAVAWFRQAPGKEREEVSCITYSGGSTNYAESVKGRFTISRDNSKNTLYLQMNSLRAEDTAVYYCTTEPYGSSCPLSGYDTWGQGTLVTVSS
notes: not shown: it was loaded on an AHC (anti-human Fc) sensor
B4: anti-TNFR2 control antibody (variable region SEQ ID NO: 83 and SEQ ID NO: 84, constant region of human IgG1 SEQ ID NO: 85 and SEQ ID NO: 86) (antibody, V domains shown)
VH: EVQLVQSGAEVKKPGATVKISCKVSGYSITDYLLHWVQQAPGKGLEWMGWIDPEDAKTKYGQKFQSRVTITADTSTDTAYMELSSLRSEDTAVYYCAANSGTGTMDAWGQGTLVTVSS
VL: DIVMTQSPATLSVSPGERATLSCKASQNVGSNVDWYQQKPGQSPRVLIYKASIRYTGIPARFSGSGSGTEFTLTISILQSEDFAVYFCMQSKSYPITFGQGTKLEIKR
notes: also called Positive control 1

What was measured:
[1] = molecular target: T1, human CD24 on MCF-7 tumor cells (human, UniProt P25063 27-59); test: flow cytometry on MCF-7 cells, 150 nM antibody, anti-human IgG Fc detection
T1 construct: whole, on cells; also called CD24 protein; MCF-7 tumor cells with high expression of human CD24
T1 chain (looked up): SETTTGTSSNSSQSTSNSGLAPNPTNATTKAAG
Experimental: 100 μL of dilution was added to the blank control group, and 100 μL of fluorescent secondary antibody dilution was added to the rest of the sample groups respectively. After incubation for 0.5 h at room temperature and 4° C. protected from light, PBS was added to wash and centrifuged (3000 rpm, 3 min) twice. After discarding the supernatant, 80 μL of the dilution was added and resuspended.

[2] = molecular target: T2, Human-B7H3 His (manufacturer: Acro, CAT: TB73-H52E2) (human, UniProt Q5ZPR3-2 29-245); test: ELISA: Human-B7H3 His coated (0.3 µg/mL), antibody titrated, goat anti-human IgG Fc detection, OD450 (Example 3)
T2 construct: also called human B7H3 protein; B7H3 protein; not shown: His tag
T2 sequence (looked up): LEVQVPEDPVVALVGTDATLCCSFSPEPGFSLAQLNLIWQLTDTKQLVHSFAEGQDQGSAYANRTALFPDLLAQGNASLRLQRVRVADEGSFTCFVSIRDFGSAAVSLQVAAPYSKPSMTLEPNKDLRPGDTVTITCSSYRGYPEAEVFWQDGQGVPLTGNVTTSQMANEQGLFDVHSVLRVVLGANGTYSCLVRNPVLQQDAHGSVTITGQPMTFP
Experimental: Human-B7H3 His (manufacturer: Acro, CAT: TB73-H52E2, LOT: 2052-21AXF1-YS) was diluted to 0.3 μg/mL with a coating solution (1×PBS, pH7.4), and coated into a 96-well ELISA plate at 100 μL/well overnight at 4° C. The coating solution was poured off. Each well was washed with 1×PBST at 300 μL, washed 4 times with a plate washer, and patted dry on a flat paper. It was blocked with 3% skim milk powder at 300 μL/well, and incubated at 37° C. for 1 h. The blocking solution was poured off, washed 4 times with a plate washer, and patted dry on a flat paper. Negative control and positive control were set up. […] The variable region of the antibody sequence of the positive control consists of SEQ ID NO: 1 and SEQ ID NO: 5, with the constant region of human IgG1 added (SEQ ID NO: 85 and SEQ ID NO: 86). The positive control and antibody were diluted to 10 μg/mL with 3% skim milk powder as the starting concentration, and then diluted by 3-fold gradient (11 gradients in total). A blank well was set up and only the diluent was added. It was incubated at 37° C. for 1 h at 100 μL/well. The liquid in the well was discarded, washed 4 times with a plate washer, and patted dry on a flat paper. Goat anti-human IgG Fc was diluted with 3% skim milk powder at 1:20000, and incubated at 37° C. for 1 h at 100 μL/well. It was washed 6 times with a plate washer, and patted dry on a flat paper. TMB color developing solution was added at 100 μL/well, and wrapped with aluminum foil. Color development was performed at 37° C. in the dark for 8 min. Termination solution 1M HCl was added to terminate the color development reaction at 100 μL/well. Readings were taken at 450 nm on an ELISA reader.

[3] = molecular target: T3, Human-B7H3 Fc (manufacturer: Acro, CAT: B73-H5253) (human, UniProt Q5ZPR3-2 29-245); test: bridging ELISA: Human-B7H3 Fc coated (0.5 µg/mL), antibody titrated, then Human-TNFR2-His (0.5 µg/mL), HRP-labeled anti-His detection, OD450 (Example 4); half-maximal concentration of the bridging signal
T3 construct: Bought protein; not shown: Fc
T3 sequence (looked up): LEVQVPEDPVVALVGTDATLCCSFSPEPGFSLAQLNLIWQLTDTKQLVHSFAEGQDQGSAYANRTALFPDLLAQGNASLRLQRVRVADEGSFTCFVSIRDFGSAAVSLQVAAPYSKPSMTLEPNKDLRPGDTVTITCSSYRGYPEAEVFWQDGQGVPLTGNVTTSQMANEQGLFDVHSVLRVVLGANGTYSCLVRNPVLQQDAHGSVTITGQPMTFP
Experimental: Human-B7H3 Fc (manufacturer: Acro, CAT: B73-H5253, LOT: 2053b-201XF1-UD) was diluted to 0.5 μg/mL with a coating solution (1×PBS, pH7.4) and coated into a 96-well ELISA plate at 100 μL/well at 4° C. overnight. The coating solution was poured off. Each well was washed with 1×PBST at 300 μL, washed 4 times with a plate washer, and patted dry on a flat paper. It was blocked with 3% skim milk powder at 300 μL/well, and incubated at 37° C. for 1 h. The blocking solution was poured off, washed 4 times with a plate washer, and patted dry on a flat paper. […] Starting at 300 nM, which was used as the initial concentration for 3-fold dilution, a total of 8 gradients were diluted, and a blank well was set up, and only diluent was added. It was incubated at 37° C. for 1 h at 100 μL/well. The liquid in the well was discarded, washed 4 times with a plate washer, and patted dry on a flat paper. Human-TNFR2-His (manufacturer: Sino, CAT: 10417-H08H, LOT: LC12SE2902) was diluted to 0.5 μg/mL, 100 μL was added to each well, and incubated at room temperature for 1 h. The plate was washed 3 times with PBST, and then the HRP-labeled his antibody was diluted with sample diluent at 1:10000, 100 μL was added to each well, and incubated at room temperature for 1 h. It was washed 6 times with a plate washer, and patted dry on a flat paper. […] Readings were taken at 450 nm on an ELISA reader.

[4] = molecular target: T4, Human-TNFR2-His (manufacturer: SINO, CAT: 10417-H08H) (human, UniProt P20333 23-257); test: BLI, antibody on AHC sensor, 100 nM human-TNFR2-His in solution
T4 construct: Bought protein; also called human TNFR2 protein; TNFR2 protein; not shown: His tag
T4 sequence (looked up): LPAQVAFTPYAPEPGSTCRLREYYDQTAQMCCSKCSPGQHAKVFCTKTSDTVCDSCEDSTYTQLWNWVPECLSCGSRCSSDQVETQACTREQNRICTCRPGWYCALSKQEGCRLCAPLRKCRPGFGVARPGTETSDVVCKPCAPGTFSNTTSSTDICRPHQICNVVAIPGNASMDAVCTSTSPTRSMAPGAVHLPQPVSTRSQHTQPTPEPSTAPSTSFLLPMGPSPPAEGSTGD
Experimental: The AHC sensor was soaked in 0.02% PBST (0.02% Tween 20, pH 7.4, 1×PBS) as a buffer for 600 s to remove the sucrose covering the sensor surface. The AHC sensor was equilibrated with 0.02% PBST (0.02% Tween 20, pH 7.4, 1×PBS) as a buffer for 60 s, the antibody in the sample plate was solidified for 300 s, and the secondary equilibration buffer was used for 180 s. 100 nM human-TNFR2-His (manufacturer: SINO, CAT: 10417-H08H, LOT: LC12SE2902) protein was bound to the antibody for 300 s and then dissociated for 600 s. After dissociation, 10 mM glycine (pH 2.0) was used as a regeneration buffer for 30 s. The sensor was regenerated with 10 mM glycine (pH 2.0).

[5] = molecular target: T2, Human-B7H3 His (manufacturer: Acro, …); test: BLI, antibody on AHC sensor, 100 nM His-tagged protein (Acro TB73-H52E2) in solution
[6] = molecular target: T4, Human-TNFR2-His (manufacturer: SINO, …); test: ELISA: Human-TNFR2-His coated (0.3 µg/mL), antibody titrated, goat anti-human IgG Fc detection, OD450 (Example 10)
Experimental: (§1) Human-TNFR2-His (manufacturer: SINO, CAT: 10417-H08H, LOT: LC12SE2902) was diluted to 0.3 μg/mL with a coating solution (1×PBS, pH7.4), and coated into a 96-well ELISA plate at 100 μL/well overnight at 4° C. The coating solution was poured off. Each well was washed with 1×PBST at 300 μL, washed 4 times with a plate washer, and patted dry on a flat paper. It was blocked with 3% skim milk powder at 300 μL/well, and incubated at 37° C. for 1 h. The blocking solution was poured off, washed 4 times with a plate washer, and patted dry on a flat paper. Negative control and positive control were set up. […] The positive control and antibody were diluted to 10 μg/mL with 3% skim milk powder as the starting concentration, and then diluted by 3-fold gradient (11 gradients in total). A blank well was set up and only the diluent was added. It was incubated at 37° C. for 1 h at 100 μL/well. The liquid in the well was discarded, washed 4 times with a plate washer, and patted dry on a flat paper. Goat anti-human IgG Fc was diluted with 3% skim milk powder at 1:20000, and incubated at 37° C. for 1 h at 100 μL/well. It was washed 6 times with a plate washer, and patted dry on a flat paper. TMB color developing solution was added at 100 μL/well, and wrapped with aluminum foil. Color development was performed at 37° C. in the dark for 8 min. […] Readings were taken at 450 nm on an ELISA reader.

[7] = molecular target: T4, Human-TNFR2-His (manufacturer: SINO, …); test: as above; remark: listed apart in the source
Experimental: as §1

Binder | E1 Mean PE-A [1] | EC50 (read off the curve) [2] | EC50 (read off the curve) [3] | Kd [4] | koff [4] | kon [4] | Kd [5] | koff [5] | kon [5] | EC50 (read off the curve) [6] | EC50 (read off the curve) [7]
B1 | 4.45e+06 | – | – | – | – | – | – | – | – | – | –
B2 | – | ~0.3 nM | ~0.5 nM | 2.89 nM | 0.000665 s⁻¹ | 230000 M⁻¹ s⁻¹ | 159 nM | 0.00174 s⁻¹ | 10900 M⁻¹ s⁻¹ | – | –
B3 | – | – | – | 1.61 nM | 0.000427 s⁻¹ | 266000 M⁻¹ s⁻¹ | – | – | – | ~0.05 nM | –
B4 | – | – | – | 0.324 nM | 0.000127 s⁻¹ | 391000 M⁻¹ s⁻¹ | – | – | – | ~0.03 nM | ~0.03 nM
